{"source": "paper PMC7383237", "about": "“Diversification of DNA-Binding Specificity by Permissive and Specificity-Switching Mutations in the ParB/Noc Protein Family”", "binders": {"B1": {"name": "parS BLI duplex (dsDNA)", "DNA 1": "GGGATGTTTCACGTGAAACA", "DNA 2": "TGTTTCACGTGAAACATCCC"}, "B2": {"name": "parS 20-bp crystal duplex (dsDNA)", "DNA 1": "GATGTTTCACGTGAAACATC", "DNA 2": "GATGTTTCACGTGAAACATC"}, "B3": {"name": "site7 (dsDNA)", "DNA 1": "GGGATCTTTCCCGGGAAAGA", "DNA 2": "TCTTTCCCGGGAAAGATCCC"}, "B4": {"name": "site1 (dsDNA)", "DNA 1": "GGGATGTTTCTCGAGAAACA", "DNA 2": "TGTTTCTCGAGAAACATCCC"}, "B5": {"name": "site11 (dsDNA)", "DNA 1": "GGGATTTTTCCCGGGAAAAA", "DNA 2": "TTTTTCCCGGGAAAAATCCC"}, "B6": {"name": "site4 (dsDNA)", "DNA 1": "GGGATCTTTCACGTGAAAGA", "DNA 2": "TCTTTCACGTGAAAGATCCC"}, "B7": {"name": "site5 (dsDNA)", "DNA 1": "GGGATCTTTCTCGAGAAAGA", "DNA 2": "TCTTTCTCGAGAAAGATCCC"}, "B8": {"name": "site14 (dsDNA)", "DNA 1": "GGGATATTTCGCGCGAAATA", "DNA 2": "TATTTCGCGCGAAATATCCC"}, "B9": {"name": "site3 (dsDNA)", "DNA 1": "GGGATGTTTCCCGGGAAACA", "DNA 2": "TGTTTCCCGGGAAACATCCC"}, "B10": {"name": "site2 (dsDNA)", "DNA 1": "GGGATGTTTCGCGCGAAACA", "DNA 2": "TGTTTCGCGCGAAACATCCC"}, "B11": {"name": "site10 (dsDNA)", "DNA 1": "GGGATTTTTCGCGCGAAAAA", "DNA 2": "TTTTTCGCGCGAAAAATCCC"}, "B12": {"name": "site9 (dsDNA)", "DNA 1": "GGGATTTTTCTCGAGAAAAA", "DNA 2": "TTTTTCTCGAGAAAAATCCC"}, "B13": {"name": "site13 (dsDNA)", "DNA 1": "GGGATATTTCTCGAGAAATA", "DNA 2": "TATTTCTCGAGAAATATCCC"}, "B14": {"name": "site8 (dsDNA)", "DNA 1": "GGGATTTTTCACGTGAAAAA", "DNA 2": "TTTTTCACGTGAAAAATCCC"}, "B15": {"name": "NBS BLI duplex (dsDNA)", "DNA 1": "GGGATATTTCCCGGGAAATA", "DNA 2": "TATTTCCCGGGAAATATCCC"}, "B16": {"name": "site12 (dsDNA)", "DNA 1": "GGGATATTTCACGTGAAATA", "DNA 2": "TATTTCACGTGAAATATCCC"}, "B17": {"name": "site6 (dsDNA)", "DNA 1": "GGGATCTTTCGCGCGAAAGA", "DNA 2": "TCTTTCGCGCGAAAGATCCC"}}, "note": "Residue numbers refer to the chain shown, from its start.", "data": [{"molecular_target": "T1, ParB WT (RTAG) (Caulobacter crescentus, UniProt B8GW30 1-304)", "T1 sequence": "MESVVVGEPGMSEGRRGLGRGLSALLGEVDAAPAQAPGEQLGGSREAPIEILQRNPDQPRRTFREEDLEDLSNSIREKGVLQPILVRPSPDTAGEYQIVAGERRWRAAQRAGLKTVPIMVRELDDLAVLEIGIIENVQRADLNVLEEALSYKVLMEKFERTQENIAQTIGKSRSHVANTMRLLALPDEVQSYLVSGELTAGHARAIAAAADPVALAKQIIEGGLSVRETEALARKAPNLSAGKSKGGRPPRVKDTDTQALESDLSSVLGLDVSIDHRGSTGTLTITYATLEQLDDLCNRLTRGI", "test": "BLI; BLI: 100 mM Tris-HCl pH 7.4, 150 mM NaCl, 1 mM EDTA, 0.005% Tween 20; temperature not stated; biotinylated DNA on streptavidin sensor, protein typically 0-1000", "conditions": "protein: recombinant; tags: C-terminal His6; chain copies: 2; label: 5' biotin on strand 1; blunt", "units": {"Kd": "nM"}, "values": [{"binder": "B1", "Kd": "11 ± 7"}]}, {"molecular_target": "T2, ParB DBD (Caulobacter crescentus, UniProt B8GW30 126-243)", "T2 sequence": "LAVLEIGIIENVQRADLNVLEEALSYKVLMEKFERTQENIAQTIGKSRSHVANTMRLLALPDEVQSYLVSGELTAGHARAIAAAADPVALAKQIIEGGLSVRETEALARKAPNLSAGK", "test": "X-ray crystallography 2.4 A; BLI: 100 mM Tris-HCl pH 7.4, 150 mM NaCl, 1 mM EDTA, 0.005% Tween 20; temperature not stated; biotinylated DNA on streptavidin sensor, protein typically 0-1000", "conditions": "protein: recombinant; tags: C-terminal His6; chain copies: 2; blunt; palindrome, 2 strand copies", "values": [{"binder": "B2", "binding result": "binds"}]}, {"molecular_target": "T3, ParB PtoN7 (QTAR) (Caulobacter crescentus, UniProt B8GW30 1-304, R173Q;G201R)", "T3 sequence": "T1 sequence with R173Q, G201R", "test": "BLI; 1000 nM dimer; BLI: 100 mM Tris-HCl pH 7.4, 150 mM NaCl, 1 mM EDTA, 0.005% Tween 20; temperature not stated; biotinylated DNA on streptavidin sensor, protein typically 0-1000", "conditions": "protein: recombinant; tags: C-terminal His6; chain copies: 2; label: 5' biotin on strand 1; blunt", "values": [{"binder": "B3", "binding result": "no binding"}, {"binder": "B4", "binding result": "no binding"}, {"binder": "B5", "binding result": "no binding"}, {"binder": "B6", "binding result": "no binding"}, {"binder": "B7", "binding result": "no binding"}, {"binder": "B8", "binding result": "no binding"}, {"binder": "B9", "binding result": "no binding"}, {"binder": "B10", "binding result": "no binding"}, {"binder": "B1", "binding result": "no binding"}, {"binder": "B11", "binding result": "no binding"}, {"binder": "B12", "binding result": "no binding"}, {"binder": "B13", "binding result": "no binding"}, {"binder": "B14", "binding result": "no binding"}, {"binder": "B15", "binding result": "no binding"}, {"binder": "B16", "binding result": "no binding"}, {"binder": "B17", "binding result": "no binding"}]}, {"molecular_target": "T4, ParB PtoN1 (QTAG) (Caulobacter crescentus, UniProt B8GW30 1-304, R173Q)", "T4 sequence": "T1 sequence with R173Q", "test": "BLI; 1000 nM dimer; BLI: 100 mM Tris-HCl pH 7.4, 150 mM NaCl, 1 mM EDTA, 0.005% Tween 20; temperature not stated; biotinylated DNA on streptavidin sensor, protein typically 0-1000", "conditions": "protein: recombinant; tags: C-terminal His6; chain copies: 2; label: 5' biotin on strand 1; blunt", "values": [{"binder": "B3", "binding result": "no binding"}, {"binder": "B4", "binding result": "no binding"}, {"binder": "B5", "binding result": "no binding"}, {"binder": "B6", "binding result": "no binding"}, {"binder": "B7", "binding result": "no binding"}, {"binder": "B8", "binding result": "no binding"}, {"binder": "B9", "binding result": "no binding"}, {"binder": "B10", "binding result": "no binding"}, {"binder": "B1", "binding result": "no binding"}, {"binder": "B11", "binding result": "no binding"}, {"binder": "B12", "binding result": "no binding"}, {"binder": "B13", "binding result": "no binding"}, {"binder": "B14", "binding result": "no binding"}, {"binder": "B15", "binding result": "no binding"}, {"binder": "B16", "binding result": "no binding"}, {"binder": "B17", "binding result": "no binding"}]}]}
